System: MS2 coat protein
Assay: apparent KD of MS2 coat protein; designed switch direction (-1 OFF switch, 1 ON switch): -1; higher = weaker reporter binding
Outline: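 For each design, the apparent KD is the median over clusters of curves fitted to normalised cluster fluorescence. Clusters held RNA switches with common flanks, transcribed on Illumina chips by stalled E. coli RNA polymerase. These were titrated with SNAP-549-labelled MS2 coat protein, doubling from 0.7 or 1.5 nM to 3 µM, without input, with 200 uM small-molecule ligand, or with an oligonucleotide input.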

[1] = Eterna round: R95, input ligand: FMN 200 uM
[2] = Eterna round: R95, input ligand: microRNA oligo, concentration not stated
[3] = Eterna round: R95, input ligand: none
[4] = input ligand: microRNA oligo, concentration not stated

| Sequence | apparent KD of MS2 coat protein (input ligand: FMN 200 uM) [nM] | apparent KD of MS2 coat protein (input ligand: none) [nM] | apparent KD of MS2 coat protein [1] [nM] | apparent KD of MS2 coat protein [2] [nM] | apparent KD of MS2 coat protein [3] [nM] | apparent KD of MS2 coat protein [4] [nM] |
| --- | --- | --- | --- | --- | --- | --- |
| GCAUUUUGGUCGUCUUAUAACAUGAGGAUCACCCAUGUGUUGAGCCCAACUUAUUGUACUCAUGCUAUGGCCUGAUG [Eternabot (L2) Solution 27] (Eterna round: R97, puzzle: Sensor, turn-off variant 1) | 81.2 | 84.2 | – | – | – | – |
| GCCAGAGCAGGAUAUUCAUUAUAUCACAUGAGGAUCACCCAUGUCCAGCGAAAGCUGGAGGGAGAAGGGCUCUGGC [Fiskers Ex 5 - 24] (puzzle: Exclusion 5) | – | – | 102 | 225 | 140 | – |
| GCCAGAGGAGGAUAUCUAAUAUAUCACAUGAGGAUCACCCAUGUCCAGCGAAAGCUGGAGGGAGAAGGCCUCUGGC [Fiskers Ex 5 - 23] (Eterna round: R96, puzzle: Exclusion 5) | 74.8 | 252 | – | – | – | 172 |
| GCCAGAGGAGGAUAUCUAAUAUAUCACAUGAGGAUCACCCAUGUCCAGCGAAAGCUGGAGGGAGAAGGCCUCUGGC [Fiskers Ex 5 - 23] (puzzle: Exclusion 5) | – | – | 46 | 98.2 | 78.2 | – |
| GCCCGGCGUGUAGGAUAUGGUUCCGUUUCGGUUCCAGAAGGACAUGAGGAUACAUGAGGAUCACCCAUGUGGUCGUCACCGGGC [salish99_ExNG1_r04_402] (Eterna round: R96, puzzle: Exclusion NG 1) | 37.4 | 38.7 | – | – | – | 26 |
| GCCCGGGCAGGAUAUACAAUGAAGUUGAGAAAUCGGCUUCGACAUGAGGAUCACCCAUGUAGAAGGGCCCGGGC [-36.9, -34.6 kcal, A 28% 3] (Eterna round: R97, puzzle: Exclusion 2) | 17.6 | 14.6 | – | – | – | – |
| GCCCGGGCAGGAUAUACGUGGCCCGGGUAACCGGGCCUCAGACAUGAGGAUCACCCAUGUAGAAGGGCCCGGGC [-44, -43.8 kcal, A 22%] (Eterna round: R97, puzzle: Exclusion 2) | 18.1 | 18.3 | – | – | – | – |
| GCCGAAAAUGUGAGGAUAUACCUAUGGAAACAUAGGUAGAAGGCACAUGAGGAUCACCCAUGUUCCUCAUCGGC [Mat - Exclusion 4 - Eli Mod - D17] (Eterna round: R97, puzzle: Brourd's mod of Exclusion 4) | 729 | 120 | – | – | – | – |
| GCCGAUUAAGUGAGGAUAUACCUAUGGAUACAUAGGUAGAAGGCACAUGAGGAUCACCCAUGUAUCCUAUCGGC [Eli bmx4 4.27] (Eterna round: R97, puzzle: Brourd's mod of Exclusion 4) | 517 | 59.8 | – | – | – | – |
| GCCGGAUAAGUGAGGAUAUGCCUAUGGAUACGUAGGCAGAAGGCACAUGAGGAUCACCCAUGUACCUCUCCGGC [JL-BMX4-4.25 Eli mod] (Eterna round: R97, puzzle: Brourd's mod of Exclusion 4) | 116 | 17.5 | – | – | – | – |
| GCCGUACAAGGAUAUACAUGAGGAUCACCCAUGUGUCUCCUCGAGAGCAAACGGCUCUGUAGAAGGUGUCGUAA [EX3 C.20] (Eterna round: R97, puzzle: Exclusion 3) | 16.5 | 15.6 | – | – | – | – |
| GCCUAAGCAGGAUAUUCAAUAUGUCACAUGAGGAUCACCCAUGUCCAGCGAAAGCUGGAGGGAGAAGGGCUUAGGC [Mat - Exclusion 5 - Eli mod - D100] (puzzle: Exclusion 5) | – | – | 21.1 | 101 | 106 | – |
| GCCUACCAGCUAGGAUAUGCAGUACAGUAAAAUGUAGAAGGAGCACGAUCCAGACAUGAGGAUCACCCAUGUGGGCGGCAGGCA [Raartive] (Eterna round: R96, puzzle: Exclusion NG 1) | 19.7 | 22.8 | – | – | – | 17 |
| GCCUCACAUGAGGAUCACCCAUGUCAGGAUAUACCCAUCCAGCGAAAUUAAAGCUGUAGUAGAAGGGACAUGCA [Bevebeis] (Eterna round: R97, puzzle: Exclusion 1) | 53.7 | 18.4 | – | – | – | – |
| GCCUGCUGGCGAGGAUAUCCUGUGCGGUUCCGGCUCGUGUCUGUUACAUGAGGAUCACCCAUGUGGGAGAAGGUGUCUGUGGCC [Design 99] (Eterna round: R96, puzzle: Exclusion NG 2) | 17.7 | 22.4 | – | – | – | 15.7 |
| GCCUUAUCUGUCAGGAUAUACAAUAAAAUAAUUAUGUAGAAGGGACAUGAGGAUCACCCAUGUACAUUACAUUG [alecazam25] (Eterna round: R97, puzzle: Brourd's mod of Exclusion 4) | 50 | 22 | – | – | – | – |
| GCGAAAGCAAGCAAGUGAAACAUGAGGAUCACCCAUGUCCUCAUUUGUUCGUCUUAUAAGCUAUGCGAAAGCAUAGC [Sensor 3, v1 - 7] (puzzle: Sensor v3, turn-off variant 1) | – | – | 18.4 | 218 | 19.4 | – |

| Sequence | apparent KD of MS2 coat protein (input ligand: FMN 200 uM) [nM] | apparent KD of MS2 coat protein (input ligand: none) [nM] | apparent KD of MS2 coat protein [1] [nM] | apparent KD of MS2 coat protein [2] [nM] | apparent KD of MS2 coat protein [3] [nM] | apparent KD of MS2 coat protein [4] [nM] |
| --- | --- | --- | --- | --- | --- | --- |
| GCGAUUUCCGAGGAUAUCCUGCACACUAUCUAAGGAGAAGGCGGAACUUGAGGAUCACCCAAGUGCAUCCGAAU [Isusbe] (Eterna round: R97, puzzle: Exclusion 6) | 135 | 39.5 | – | – | – | – |
| GCGCACCUACCAAAAGGUAGGCCCACAUGAGGAUCACCCAUGUAGGAUAUCGAUUGCUUUGCAGUCGAGAAGGACGUGAUGCGC [JL ENG3 3.80 Mod 17] (Eterna round: R96, puzzle: Exclusion NG 3) | 25.7 | 18.3 | – | – | – | 11.6 |
| GCGCACUAAGUGAGGAUAUCGAUUUCUUUAAGGAUCGAGAAGGCACAUGAGGAUCACCCAUGUUUGACGUGCGC [JR_BMOE4_Sub097] (puzzle: Brourd's mod of Exclusion 4) | – | – | – | 15.5 | – | – |
| GCGCAGUCAGGAUAUGCCGCUGGCGAUCACCGUGGGCAAAGGCAGAAGGGACAUGAGGAUCACCCAUGUGGCGC [e4e Mirror Pins #2] (puzzle: Exclusion 4) | – | – | – | 39 | – | – |
| GCGCUGCGAGGAUAUACAUGAGGAUCACCCAUGUGUCGGCAGCCAUGUUAGUACAAAUGUAGAAGGCGCGUAAA [EX3 #61] (Eterna round: R97, puzzle: Exclusion 3) | 20.8 | 18.3 | – | – | – | – |
| GCGGAUUAUGUAGGAUAUCGGUCAGUUUCUGAUCGAGAAGGACAUGAGGAUCACCCAUGUAAAUUCCUCGCUUUGUGAGGCCGC [JL ENG1 3.64] (Eterna round: R96, puzzle: Exclusion NG 1) | 31.5 | 17.8 | – | – | – | 15.6 |
| GCGGAUUAUGUAGGAUAUCGGUCAGUUUCUGAUCGAGAAGGACAUGAGGAUCACCCAUGUAAAUUGCUCGCUUUGUGAGCCCGC [JL ENG1 3.63] (Eterna round: R96, puzzle: Exclusion NG 1) | 34.5 | 14.8 | – | – | – | 12.4 |
| GCGGGCCCGGGAGGAUAUACAUGAGGAUCACCCAUGUGGGCCCGGGCCCGCGGGCCCGGGCCCGUGUAGAAGGCCCGGGCCCGC [-64.9, -63.3 kcal, A 14%] (Eterna round: R96, puzzle: Exclusion NG 2) | 28 | 14.2 | – | – | – | 10.1 |
| GCGGUACAUGAGGAUCACCCAUGUCAGGAUAUCCGCUGUUUGUUGAUAAGCAGGCGGUGGAGAAGGGACUUCGC [-26.7, -26 kcal, 23% A] (Eterna round: R97, puzzle: Exclusion 1) | 39.7 | 33.8 | – | – | – | – |
| GCGUAUGAGCAGGAUAUCCGACGGGAAUCCAAAGGAGAAGGGCUCACAUGAGGAUCACCCAUGUGGUCCAAAAC [Agediat] (puzzle: Exclusion 6) | – | – | 109 | 24 | 27.3 | – |
| GCGUGACAUGAGGAUCACCCAUGUGAGGAUAUCUGGAUACUCUUUAUUUUAGAUAUCCAGAGAAGGCACAUGCU [Ex1-3: 4Z] (puzzle: Exclusion 1) | – | – | – | 191 | – | – |
| GCUAGGCAUGUCAGGAUAUGCAGAUCCUUGGAUCUGCAGAAGGGACAUGAGGAUCACCCAUGUGCCAACCUAGC [Mat - Exclusion 4 - JL Mod - D11] (Eterna round: R97, puzzle: Brourd's mod of Exclusion 4) | 609 | 47 | – | – | – | – |
| GCUAUGGGAGGAUAUACAUGAGGAUCACCCAUGUGUAGAGCAUACGCGCGCAUUAACAGUAGAAGGCCCUGCGU [Eternabot (L1) Solution 23] (Eterna round: R97, puzzle: Exclusion 3) | 50.7 | 49.4 | – | – | – | – |
| GCUCACGCAGGAUAUACAUGAGGAUCACCCAUGUUCGAAGGGCGUGGGUACAAAGUCUGUAGAAGGGCGAAAAU [Edrereve] (Eterna round: R97, puzzle: Exclusion 3) | 20.6 | 17.4 | – | – | – | – |
| GCUCGAAGGAGUGGGAGCAACAUGAGGAUCACCCAUGUGCGGCUAUUUCAUGCUCGUCUUAAAGCUUUGCCCUAGCC [Eternabot (Original) Solution 40] (Eterna round: R97, puzzle: Sensor, turn-off variant 1) | 17.2 | 18.5 | – | – | – | – |
| GCUCGCGGGCAAGGAUAUCCUACGCUGUUCUGGUUCGUGUCUGUUACAUGAGGAUCACCCAUGUGGGAGAAGGUGCACCAGGGU [Design 49] (Eterna round: R96, puzzle: Exclusion NG 2) | 17.5 | 20.1 | – | – | – | 12.4 |

— the supplement of paper PMC9170038
